Assay results from US20070178531A1 (BIOCHECK, published 2007).

Key:
Mouse Id2: Histidine [1] = biological target: T1, Mouse Id2: Histidine (mouse, UniProt P41136 1-134, limits assumed); experiment: ELISA, Ab 0.250 µg/ml
T1 construct: Fusion protein made in E. coli from vector pGW07; also called m-Id2: His; not shown: His tag
T1 sequence (looked up): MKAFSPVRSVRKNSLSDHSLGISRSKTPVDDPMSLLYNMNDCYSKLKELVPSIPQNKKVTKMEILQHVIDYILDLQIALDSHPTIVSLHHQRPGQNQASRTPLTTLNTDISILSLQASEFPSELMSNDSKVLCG

Mouse Id1: Histidine [2] = biological target: T2, Mouse Id1: Histidine (mouse, UniProt P20067-2 1-148, limits assumed); experiment: ELISA, Ab 0.250 µg/ml
T2 construct: Fusion protein made in E. coli from vector pGW07; also called m-Id1-His; not shown: His tag
T2 sequence (looked up): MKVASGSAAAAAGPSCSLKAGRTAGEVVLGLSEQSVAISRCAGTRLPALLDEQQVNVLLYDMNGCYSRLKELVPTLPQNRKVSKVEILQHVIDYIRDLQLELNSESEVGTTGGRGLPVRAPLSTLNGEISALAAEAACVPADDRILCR

Human Id1: Histidine [3] = biological target: T3, Human Id1: Histidine (human, UniProt P41134 1-155, limits assumed); experiment: ELISA, Ab 0.250 µg/ml
T3 construct: Fusion protein made in E. coli from vector pGW07; also called h-Id1: his; not shown: His tag
T3 sequence (looked up): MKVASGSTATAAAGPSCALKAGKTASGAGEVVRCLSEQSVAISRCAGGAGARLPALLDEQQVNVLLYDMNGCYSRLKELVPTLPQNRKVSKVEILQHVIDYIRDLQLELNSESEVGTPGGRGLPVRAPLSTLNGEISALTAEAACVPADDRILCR

Mouse Id3: Histidine [4] = biological target: T4, Mouse Id3: Histidine (mouse, UniProt P41133 1-119); experiment: ELISA, Ab 0.500 µg/ml
T4 construct: Fusion protein made in E. coli from vector pGW07; also called m-Id3: His; Mouse Id3 (coated wells); not shown: His tag
T4 sequence: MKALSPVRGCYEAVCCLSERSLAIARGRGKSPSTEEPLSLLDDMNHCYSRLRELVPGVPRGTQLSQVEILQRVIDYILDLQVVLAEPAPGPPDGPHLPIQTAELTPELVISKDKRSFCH

Mouse Id2: Histidine [5] = biological target: T1, Mouse Id2: Histidine; experiment: ELISA, Ab 0.500 µg/ml
Mouse Id1: Histidine [6] = biological target: T2, Mouse Id1: Histidine; experiment: ELISA, Ab 0.500 µg/ml
Human Id1: Histidine [7] = biological target: T3, Human Id1: Histidine; experiment: ELISA, Ab 0.500 µg/ml
Human Id3: Histidine [8] = biological target: T5, Human Id3: Histidine (human, UniProt Q02535 1-119 at identity 1.00)); experiment: ELISA, Ab 0.500 µg/ml
T5 construct: Fusion protein made in E. coli from vector pGW07; also called h-Id3: His; Human Id3 (coated wells); not shown: His tag
T5 chain: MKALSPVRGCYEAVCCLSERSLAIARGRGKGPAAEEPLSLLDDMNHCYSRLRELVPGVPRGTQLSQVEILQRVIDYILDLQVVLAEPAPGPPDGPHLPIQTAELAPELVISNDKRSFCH

Human Id2: Histidine [9] = biological target: T6, Human Id2: Histidine (human, UniProt Q02363 1-134, limits assumed); experiment: ELISA, Ab 0.500 µg/ml
T6 construct: Fusion protein made in E. coli from vector pGW07; also called h-Id2: His; not shown: His tag
T6 sequence (looked up): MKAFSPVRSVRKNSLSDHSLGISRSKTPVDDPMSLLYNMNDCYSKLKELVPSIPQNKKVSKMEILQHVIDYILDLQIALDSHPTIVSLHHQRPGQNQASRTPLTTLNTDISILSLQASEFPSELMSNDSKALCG

Mouse Id3: Histidine [10] = biological target: T4, Mouse Id3: Histidine; experiment: ELISA, positive control (stated to be BCH-4/6-1) 0.25 µg/ml
Procedure: (§1) 1. Dispense 100 μL of antibody diluent, diluted rabbit monoclonal human Id3, and mouse/human Id3 hybridoma supernatants into appropriate wells. […] 2. Incubate at room temperature with mechanical shaking at 750 rpm for 90 minutes. [0165] 3. Remove the incubation mixture by flicking plate content into an appropriate waste container followed by rinsing the wells 5 times with distilled water. [0166] 4. Strike the wells sharply onto absorbent paper or paper towels to remove all residual water droplets. [0167] 5. Dispense 100 μL of 1:50,000 Goat Anti-Rabbit IgG-HRP Conjugate Reagent into each well. Gently mix for 5 seconds. [0168] 6. Incubate at room temperature with mechanical shaking at 750 rpm for 90 minutes. [0169] 7. Repeat procedures 3 and 4. [0170] 8. Dispense 100 μL of TMB Reagent into each well. Gently mix for 5 seconds. [0171] 9. Incubate at room temperature with mechanical shaking at 750 rpm for 20 minutes. […] 10. Add 100 μL of Stop Solution (1N HCl) into each well. [0173] 11. Gently mix for 10 seconds to ensure a complete mixing. [0174] 12. Read optical density at A450 nm.
(§2) The materials and method are the same as those described in Example 9 except the following.
(§3) Rabbit monoclonal anti-mouse Id3, hybridoma supernatant was used as the test antibody. Protein G purified, rabbit monoclonal anti-mouse/human Id3 antibody, BCH-4/6-1, 0.92 mg/ml in 0.25% BSA was used as positive controls.

Mouse Id2: Histidine [11] = biological target: T1, Mouse Id2: Histidine; experiment: as above
Procedure: as §1, §2, §3

Mouse Id1: Histidine [12] = biological target: T2, Mouse Id1: Histidine; experiment: as above
Procedure: as §1, §2, §3

Human Id1: Histidine [13] = biological target: T3, Human Id1: Histidine; experiment: as above
Procedure: as §1, §2, §3

Human Id3: Histidine [14] = biological target: T5, Human Id3: Histidine; experiment: as above
Procedure: as §1, §2, §3

Human Id2: Histidine [15] = biological target: T6, Human Id2: Histidine; experiment: as above
Procedure: as §1, §2, §3

B1: rabbit monoclonal anti-mouse/human Id3, clone #BCH-4/#6-1 (antibody, V domains shown)
VH: QSVEESGGRLVTPGTPLTLTCTASGFSLSNVYIHWVRQAPGKGLEWIGYISDGDTARYATWAKGRFTISKTSSTTVNLKMTSLTTEDTATYFCARQGFNIWGPGTLVTVSL
VL: AVLTQTPSPVSAAVGGTVSISCQSSQSVWNNNWLSWFQQKPGQPPKLLIYETSKLESGVPSRFKGSGSGTQFTLTISDVQCDDAATYYCLGGYWTTSDNNVFGGGTEVVVK
notes: Rabbit IgG from a rabbit hybridoma; also called m/h Id3 MoAb 6-1
A450 (Mouse Id2: Histidine [1]): 0.071 A450 | A450 (Mouse Id1: Histidine [2]): 0.058 A450 | A450 (Human Id1: Histidine [3]): 0.061 A450 | A450 (Mouse Id3: Histidine [4]): 3.47 A450 | A450 (Mouse Id2: Histidine [5]): 0.073 A450 | A450 (Mouse Id1: Histidine [6]): 0.067 A450 | A450 (Human Id1: Histidine [7]): 0.062 A450 | A450 (Human Id3: Histidine [8]): 3.3 A450 | A450 (Human Id2: Histidine [9]): 0.062 A450 | A450 (Mouse Id3: Histidine [10]): 2.81 A450 | A450 (Mouse Id2: Histidine [11]): 2.44 A450 | A450 (Mouse Id1: Histidine [12]): 1.96 A450 | A450 (Human Id1: Histidine [13]): 2.12 A450 | A450 (Human Id3: Histidine [14]): 2.69 A450 | A450 (Human Id2: Histidine [15]): 2.54 A450
